A protein production outcome set (Wang et al. 2014)

Experiment: label from the status in PepcDB records

| Sequence | protein production |
| --- | --- |
| MSLHTSHVIPAPRIDVWEWHTRPGAVFRLTPPFLPLRPLEQATSLAKGTTVFALPAGLRWEARHDLSGYIQHHRFTDVCINAPVKSLASWRHIHDFTDHPSGTLITDTVHTRAPRTTLSPAFAYRQHQLINDIQAQQRFYELTRSNPTESTPLTIGLTGSRGLVGRALTAQLTTLGHTVVQLVRGESKPHQRHWDPAHPAPNLLEGLDALIHLAGEPILGRFNDAHKADIRDSRIEPTRQLSQLVQKSSTCRTMVSASAIGYYGHARGDEILDEGSTQGDDFLASVCEEWEAASRTDATSNKRIVNIRTGVVMSGRGGMLPVLKAVFSVGLGGPFRGSNPWMSWIAIDDLCDIYIRAVLDPKLSGAINAVAPNPIKNQDFVDALAKELKRPAKMTISSLGPAILLGQQGAKELALADQRVQPRVLNNLDHHFRYVDIRSCLAHELGGENLLDI | failed |
| MEATNLPQPSAPADLGALQRPSYFRRLGPFDWLFAALLALGAGYAFSRYGAYMDGYERGILVAAVPAFAWLGWTWKPVRTLMIGLAVLSLFAIAQYSGPNGPELARADRVFFLKYFLASQSAILWMSALIFLSTLFFWAGLAARWPAGGAIGSKLCWAAVVLGLTGMLVRWYESYLVGADIGHIPISNLYEVFILFTLITSLFYLYYEQRYRTRALGPFVMLVVSAAVGFLLWYTVSRGAQEIQPLVPALQSWWMKIHVPANFIGYGTFALAAMVGAAYLLKEHGVLADRLPSLEVLDDVMYKAITVGFAFFTIATILGALWAADAWGGYWSWDPKETWALIVWLNYAAWLHMRLMKGLRGRMAAWWALVGLLVTTFAFLGVNMFLSGLHSYGEL | failed |
| MDFGSFLKAPEIKVKIVTYRDIFQDKAMIENRFGEEYRDRSAVIKMDSADLKQLNVKKGETVILKNSFGTVVVKAEESGYEPSHRGIAYMPKSPWSNMLVSDETGGTGIPKFKDISVTVTSAKGQKLTELGL | not failed |
| MVTALARPEQTMQELAFRTLLYRYFFFDWLFKDASRGDLRERSAAWRFNQAHAHWLLTYLRRWVWCGALFCLLGGSIELMLSAPVLSAFFYVPGVLSVPINVVICVLWVGLKTLPGPM | failed |
| MIEKIVKEMTLKEKVGQLNQHLYGWQCYQKVNGKYELTDLFKEHVKEYGGVGAIYGILRADAWSQINRENGISREDSKIVITMIQEYIKKHSRFEIPALISEECVHGHMALGAPVFPTNLAMGMTWNPDLMERITHNVSQELAAKGGNLALFTGFDVLRDPRWGRSEECFSEDAYLTSCMTSAAVHGFQKEKNGVAVVVKHLCAQGGCVGGHNSDAALIGPRELREIHLPPVKAAIDAGAKAVMAAYNEIDGIPCHINKALLFETLRKEYDFSGIVMADGCALDRLLLLDDDILKVGSLALKAGVDLSLWDNVYLRLDEAIKQGYLTEEELDQAVLRVLRLKEELGLWEELNTYSLPEASDLLLQAARECQVLLKNNDSLLPLSSKQKIAVIGPNANHYLNQLGDYTAYQNKSDIVTVYDGICQKTEISPIYVQGCSIRGRKFDIEPALVAAKAADIVILVLGGNSTRLYQDTFENNGAVKANQENQMNCGENIDLASLELEGYQNELLLALKEVNPHIVTVLIQGRPHVINTVLKHSQAVLASFYPGSRGGEGIADVLFGDYNPSGHLSVSIPQHVGQLPCYYNHKHNGAQKDYVDMPGEALLPFGYGLSYSQFIYRDIKVPKAIKITDLLENGIDLQLEIYNNSTYDGEDVIQVYLKDHQASVVSRVIELKAFNKVKIQAYQSKQISIHLTSDAFAIWNYEMKYLVEPGDVSICIGVDSKHYQEFKLTLVK | failed |
| MTSPVQATPEPQPGLVARLSAEALGSMFVVVAAVGVGIFSNPGAAPLPAALATGLTVTAAMLAFGYVSGGHFNPAITLGNLIAGRIRAVAAVAYVAAQIIGSVVGAALMYFVVTTVPVLTDARAAFDVVAPGFGDHASAQTQMAGVLLVEVLGSALLVAVFLGATAGRRALPAMAPFAVGLAMAVLLQLGQVLGNLPFNPARATAQAFFSSPWAIEGLWLFWVAPLMGAALAGLAFRGFQGLSQAAVADTDHFHGGTDGINDAFDADDEPAEDSEVKEEAAAKADIAPSRAVPTVPVTDDARDFFDGKKGK | failed |
| MIELIIGAVLLSLLIYGIFIEPHLMKVRHVKIAQKQNLKIAHFTDTHFAWHTTSRRFKKFARNIANEQPDLIIFSGDLFDKVAWAKNRDWTDLLTILSELKAPLGKFAILGNHDFDDEKSSRFVEEFLEKAGFVLLKNSSVVKDNLSISGVDDWREGRPDFELEPIDATFSLLALHEPDTILDMETIKEFDLILSGHSHGGQIRIGNWRLRNKGSSSADAGLYQLNDRTKLYVNRGIGLTFLPIRFGVPPEIVYYYI | failed |
| MSLERLRVAAYCRVSTDSEDQLNSYKSQVQYYTDMIKKNKEWVLADIYADEAITGTQVTKREDFQRMINDCMNGEIDMVFTKSISRFARNTLDTLKYVRMLKERNIAVYFEDEKINTLTMDGELLLVVLSSVAQQEVENISANVKKGLKMKMKRGELVGFQEGHHHHHH | not failed |
| MSLSRRLTMHWFAQAPANIALIKYMGKKDENSNLPDNSSLSYTLSNLLSSVKLEKLPTKKDIWEPLTIPGAPEFNLSVEAQKRFIDHLVRLKEYFGYVGGFLIQSSNNFPHSSGLASSASSFAALTKCASIALSELTQKPLPSIDEQAQLSRLGSGSSCRSFYAPWALWTGDKVSAIDLPYKDLLHQVIVISSQEKEIPSRVAHKLVKTSPFYETRSERAEANLKLLLNAFENKDWTSIYQICWHEFLDMHQLFKTCEKPFSYITDNTLHILSVIEKFWNEKGDGPVVTMDAGPNVHLLYRSDQTDLARQFKSDHLVGNYDVLEGHHHHHH | not failed |
| MKHYFSCLKGDTIKAIFLVCLAVGVVGMSYGSLAMAYGFPLWVPFVLSIFVLAGASEFMFIGIVASGGNPLAAAAAGLLVNARHVPFGVTVRDLVGTRAASFFGCHIMNDESVVFGLSQKTPEQRKAAYWLCGLGVALFWPIGTLIGAGVGKLLPAPETIGLDAVFPAILLALVIPAFKNRTTLIRGCSGAALSLAAVPFVAAGLPVLLSLLGLLARKK | failed |
| MSEPFSVPVTVRGYETDTQGHLNQSVYLNYAEHARWSLLQAAGIRQADLVARGVGPVALETTIRFQRELLAGDEVTVTCAFEWGTGKTFRIRQLVTKADGTVAAEIEAVGGLMDLGERRLVPDPRQRFKELAARPELFGLLEHHHHHH | failed |
| MVKIGVCGPVGSGKTALIEALTRHMSKDYDMAVITNDIYTKEDAEFMCKNSVMPRERIIGVETGGCPHTAIREDASMNLEAVEEMHGRFPNLELLLIESGGDNLSATFNPELADFTIFVIDVAEGDKIPRKGGPGITRSDLLVINKIDLAPYVGADLKVMERDSKKMRGEKPFIFTNIRAKEGLDDVIAWIKRNALLED | failed |
| MKKASFVYSENQLSYQFHSTHPFNHQRLRLTYDLLKSMDALDDSEIVAPRVATEAELRLIHDQAFIDAVKAAGNGTLSDGVALNYGLGTEDTPIFKNMHEAAALLVGGTLTAVDQVMEGHAEHACHLGGGLHHGFRGKASGFCVYNDSSIAIEYMRRKFGARVLYIDTDAHHGDGVQWAFYEEDDVCTLSIHETGRYLFPGTGNFNEKGQGEGYGYSINIPLDAFTEDDSFLFAYEQAVTNVVKFFKPDVILTQNGADAHFHDPLTHLCASMRTFRYIPQLAHALAHEYCEGRWIAVGGGGYDIWRVVPRAWAMIWLEMTDQLQKANGPLPERWLSKWTTYAQHPLPSHWEDENEELPTIPRRDEITEKNKKIVEKALYHIYTELKTQT | failed |
| MIKSKGDVNILLNFRHNINGEDLIIAVAQDHETGEVLMVAYMNREALRRTLETGTAHYWSTSRGKLWLKGESSGHVQRVKDVLVDCDGDAVVLKVEQEGGACHTGYRSCFYRSIDGDELKVREDAVKVFDPEEIYGDG | not failed |
| MENLYKELGDQSLHKDFCQTVASTFSCSVNRNGKSSITWKQVQIWFQEKLKHQSQPKSKTLPSPPLQIHDLSNPSSYASNASNATFVGNSTFVQTRKGKASDLADLAFEAKSARDYAWYDVSSFLTYRVLRTGELEVRVRFSGFDNRHDEWVNVKTSVRERSIPVEPSECGRVNVGDLLLCFQEREDQALYCDGHVLNIKRGIHDHARCNCVFLVRYELDNTEESLGLERICRRPEE | failed |
| ILKEYSKLLSFNAQKYYLVGAEKEDLVQEGILGLLKAIKFYDETKSSFSSFAFLCIRREMISAIRKANTQKHMVLNEALKTNAILEDSAYFDDEGHNINNYKSSESNPEEAYLLKEEIEEFKKFSENNFSKFEKEVLTYLIRGYSYREIATILSKNLKSIDNTIQRIRKKSEEWIK | failed |
| MAANGVSSGACAVSEEEARSEAERLLADPRLHVSDRHRAFLRYIVDARFEGRSDTIKAYSIAIDVFKRPASFDPSSDPIVRIEATRLRESLQKYYAQLADEPGARLDIPRGRYVPVFVERDNPPCPEEDGELEDVGLPTEEPTQAASRPEGRNWRHAIMGGAALAAVSLTGSLAYLAASAAHLNTQKPFVALSINASQNDKAAGEAVMEDLAVSLARFGTVRLKSGASGSRVPSDAMEQSLYEINMRYAENESSVSLWWQVSDAANGEAVWTDEERRPVAAGSREEAMRDLVFAVSRRLARPAGIINTIELRRNLPSSTIGNVCVLRGEFAVEQRDAAGLEAARSCLAATIASDPTDADAMATLARVYVWIGRATGDDSYFGRGLELANRAATLSPSSPRAALAQLGVQYQLGQNEISIAAGRRGVALNPENADLLAKLSMVVFLTGHWDEGVQLARQATEIAGQPIRDASFVMILNDYRQERYAQAVFLARQVPAPDAPTTVLKLAAIARLGDRPVTQQEIAAARLQHPDLERTVTAMFSGARYDSNLRDALRAGILEAGLKMPELASNGAM | failed |
| EGRLVCTVRDMTDRRQKERALRHRSSAMEVASDGIAILDEAGTYQYVNQAHASIYGYDTPGALVGRSWTACYEEAEQQRLEAEAMAALEETGDWRGEARGVREDGSSFPQELTLTVLEDGSIVCVVRDITARKEDERELRSTKQYYEQILEKAVK | failed |
| MFQKIAKECLAGFTVAIVALPLAIAFGIAATGTSEGALVGLYGAIFAGLFAALFGGTPGQVTGPTGPITVIATGVIATHGLEASFIVFMMAGLFQILFGVCKLGSYVRYIPYPVVSGFMNGIALIIILGEMKHVQNSFLLVVLTIIVMIVSGKWIKAIPSSLVALVGVTAMLPLFSSALEGLTVKLPVIGNLSLNKVIEKIGTIPEAMPTLHIPSLSGTGIAELILPALSIALLGSIDSLLTSVVMDNVTGTRHKSNKELVGQGIGNVMSGLFGGLAGAGATVRSIVNIRSGGKTALSASMHSVILFIFIMGLGSVVQYIPLAVLSGILILTGIGMFDWESMKKMHVAPKGDVVVMLVTMIVTVKFDLMIAVAFGIILAFIIYMVKCKERKASIVKEKEAIYKIKGPLSFLTVDRVFYALQDVKSPVVLRMKDTRYMDVSGAMALLNFIEQSGKSGLSVTLEQVPAHIEKILVTMASSEQKDKLLFTEADVMQGNALV | failed |
| MEFEVEYDILVIVLVAFYILAATRIAHVIGLPPGVVEIIMGAMLAFWGVKSTEVLTLLAAIGANLLLFMAGSEIDLALLRSILPQAVIVALVSALAPLALTALLHVYLGLSLTSSLVILASLSATSVALTYLLLSSYRLVRSRLGQLALASAMLLDLSGMIMLNIATASISPSLAFYIVILLAALLLYPLLPRLGGAPFEAEIRLITMTVIILGFLSDFVGVHSVLTSFILGVIASETVRTRVQLREKLESLATGFFTPFFFIASGMSIDPGIPLHYVALALAGGVALALARTYTVYFYFRLTGSSRRSSLIAASSTAMLLTVTIIAASVGFQLGLLDSLMYSVLVWIVVGTILGSFALVKMR | failed |
| MLEAEVVALKDLIEVAGAVVSTLDLDTVLRHILTSAMRFAETPAGSIALYDGYRNDLTLHAHEGLTPEFVKTERWSVQPGGLTEQVLTRGEILFVNDTADTSFFHNPTALNEGIRSLICVPLMMQNRIVGILYLDDFVPRDFDKERMKLLSVLASFAAMAIDNAQLHARTRLMAITDSLTGLYNHRYFQQIFSRELNRAKRYEKPLAIIMLDVDDFKRFNDTYGHPHGDKVLAAMGDFLGEALRSSDFAFRYGGEEFIVLLPETEFDSALQVAERLRELVERRSLDVLKGLAPQGVTVSVGVASFPRDGESRGDMLKRVDDLLYRAKEFGKNRVYSRREDEP | failed |
